By stoichiometry N is commonly meant the number of molecules, sites or subunits per partner or assembly. Usually Kd stands for the free concentration of one partner at which half of the binding sites on the other are occupied at equilibrium, for simple one-to-one binding.

Experimental findings from article PMC5450233, “SKIP controls lysosome positioning using a composite kinesin-1 heavy and light chain-binding domain” (Journal of Cell Science, 2017) are described below.

To fix the notation:
B1: SKIP(1-310) (domain or fragment, UniProt Q8IWE5 1-310, looked up)
chain: MEPGEVKDRILENISLSVKKLQSYFAACEDEIPAIRNHDKVLQRLCEHLDHALLYGLQDLSSGYWVLVVHFTRREAIKQIEVLQHVATNLGRSRAWLYLALNENSLESYLRLFQENLGLLHKYYVKNALVCSHDHLTLFLTLVSGLEFIRFELDLDAPYLDLAPYMPDYYKPQYLLDFEDRLPSSVHGSDSLSLNSFNSVTSTNLEWDDSAIAPSSEDYDFGDVFPAVPSVPSTDWEDGDLTDTVSGPRSTASDLTSSKASTRSPTQRQNPFNEEPAETVSSSDTTPVHTTSQEKEEAQALDPPDACTEL
notes: SKIP (PLEKHM2), residues 1-310; also called SKIP(1-310) with GST removed by 3C protease; source: E. coli, purified as a GST fusion, GST cleaved with 3C protease
B2: GST–KHC(815-955) (domain or fragment)
chain: not shown
notes: 3C protease site between GST and KHC (pMW-GST); source: E. coli BL21(DE3), purified (glutathione–Sepharose beads)

Conditions in all cases: both partners purified
The assay “GST–KHC(815-955)” deals with B2. Put plainly: pull-down; GST–KHC(815-955) (0.5 nmol) on glutathione beads incubated with increasing concentrations of SKIP(1-310) in solution (up to 3.5 μM); SDS-PAGE, Coomassie, densitometry; one-site specific binding model with Hill slope; non-equilibrium, value to be interpreted with caution.
Assay [1] deals with B1. The description is as above.
Assay [2] deals with B1. Put plainly: pull-down; GST–KHC truncations (0.5 nmol) on glutathione–Sepharose beads incubated with 300 μl of 1.2 μM SKIP(1-310) for 2 h at 4°C; 25 mM HEPES pH 7.5, 150 mM NaCl, 5 mM β-mercaptoethanol; Coomassie-stained SDS-PAGE.

GST–KHC(815-955), sequence (P56536 815-955): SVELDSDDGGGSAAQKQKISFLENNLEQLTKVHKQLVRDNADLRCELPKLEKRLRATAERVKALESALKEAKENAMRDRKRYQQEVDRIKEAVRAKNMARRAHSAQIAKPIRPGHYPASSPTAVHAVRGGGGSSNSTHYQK

As for B1, in the assay with GST–KHC(815-955), the “stoichiometry N” value amounted to 1.

Regarding B2, the Kd in the assay with SKIP(1-310) [1] was ~1500 nM.

B3: GST–KHC(815-917) (domain or fragment)
chain: not shown
notes: source: E. coli BL21(DE3), purified (glutathione–Sepharose beads)
As for B3, the binding result with SKIP(1-310) [2] is reported as “binds”.

B4: GST–KHC(876-917) (domain or fragment)
chain: not shown
notes: as for B3
As for B4, the binding result with SKIP(1-310) [2] was “binds”.
